The target in experiment [1] is Myc-PK-SV40NLS (not stated | SV40). Put plainly: SEC.
Another experiment addresses Myc-PK-TprNLS. Put plainly: SEC.
The target in the next experiment is GST-SV40NLS (SV40). Put plainly: ELISA.
Experiment [2] concerns the target Recombinant KPNA2/Importin-β (UniProt P52292;Q14974). Briefly: ELISA.

Drawing on publication PMC3653351 (The Journal of Cell Biology, 2013), this text covers stoichiometry N and Kd for four molecules.

Sequence of Recombinant KPNA2/Importin-β (UniProt P52292;Q14974) (Q14974 whole entry, one chain of several): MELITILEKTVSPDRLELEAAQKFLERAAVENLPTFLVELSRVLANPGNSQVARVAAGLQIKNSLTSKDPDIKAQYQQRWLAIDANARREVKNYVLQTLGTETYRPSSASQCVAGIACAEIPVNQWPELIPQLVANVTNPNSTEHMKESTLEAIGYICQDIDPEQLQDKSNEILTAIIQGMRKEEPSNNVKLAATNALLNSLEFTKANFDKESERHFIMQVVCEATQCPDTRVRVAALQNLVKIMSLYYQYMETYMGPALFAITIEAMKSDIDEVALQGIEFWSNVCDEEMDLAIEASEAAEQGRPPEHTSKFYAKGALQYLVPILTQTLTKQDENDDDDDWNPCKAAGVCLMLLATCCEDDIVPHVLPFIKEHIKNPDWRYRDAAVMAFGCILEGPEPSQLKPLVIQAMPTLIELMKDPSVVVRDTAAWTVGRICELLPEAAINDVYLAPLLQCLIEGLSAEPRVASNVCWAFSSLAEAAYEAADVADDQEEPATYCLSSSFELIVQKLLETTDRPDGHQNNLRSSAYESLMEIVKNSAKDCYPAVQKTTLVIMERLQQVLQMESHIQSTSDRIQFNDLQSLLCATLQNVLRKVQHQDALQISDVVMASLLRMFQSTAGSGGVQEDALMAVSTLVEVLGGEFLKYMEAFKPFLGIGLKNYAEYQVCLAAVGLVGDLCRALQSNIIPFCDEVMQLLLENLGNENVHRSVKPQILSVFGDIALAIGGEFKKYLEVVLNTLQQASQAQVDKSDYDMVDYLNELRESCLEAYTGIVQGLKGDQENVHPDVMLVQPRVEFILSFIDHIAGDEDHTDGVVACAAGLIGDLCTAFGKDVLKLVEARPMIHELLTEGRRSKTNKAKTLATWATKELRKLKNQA

Turning to Myc-PK-SV40NLS, the stoichiometry N in experiment [1] came to 4.

In the experiment with Myc-PK-TprNLS, Myc-PK-TprNLS registered a stoichiometry N of 4. Regarding “Recombinant KPNA2/Importin-β (from UniProt P52292;Q14974) (complex)”, the Kd in the experiment with GST-SV40NLS (SV40) is 10.5 nM.

B1: GST-TprNLS (domain or fragment)
chain: STAVFGTVSATPSSSLPKRTREEEEDSTIEASDQVSDDTVEMPLPKKLKSVTPVGT
On to B1, for which, in experiment [2], the Kd is 3.2 nM.
